Test results: IntAct's records for PubMed 21642969

B1: Transcription intermediary factor 1-beta (Homo sapiens), Q13263 (parent)
chain: MAASAAAASAAAASAASGSPGPGEGSAGGEKRSTAPSAAASASASAAASSPAGGGAEALELLEHCGVCRERLRPEREPRLLPCLHSACSACLGPAAPAAANSSGDGGAAGDGTVVDCPVCKQQCFSKDIVENYFMRDSGSKAATDAQDANQCCTSCEDNAPATSYCVECSEPLCETCVEAHQRVKYTKDHTVRSTGPAKSRDGERTVYCNVHKHEPLVLFCESCDTLTCRDCQLNAHKDHQYQFLEDAVRNQRKLLASLVKRLGDKHATLQKSTKEVRSSIRQVSDVQKRVQVDVKMAILQIMKELNKRGRVLVNDAQKVTEGQQERLERQHWTMTKIQKHQEHILRFASWALESDNNTALLLSKKLIYFQLHRALKMIVDPVEPHGEMKFQWDLNAWTKSAEAFGKIVAERPGTNSTGPAPMAPPRAPGPLSKQGSGSSQPMEVQEGYGFGSGDDPYSSAEPHVSGVKRSRSGEGEVSGLMRKVPRVSLERLDLDLTADSQPPVFKVFPGSTTEDYNLIVIERGAAAAATGQPGTAPAGTPGAPPLAGMAIVKEEETEAAIGAPPTATEGPETKPVLMALAEGPGAEGPRLASPSGSTSSGLEVVAPEGTSAPGGGPGTLDDSATICRVCQKPGDLVMCNQCEFCFHLDCHLPALQDVPGEEWSCSLCHVLPDLKEEDGSLSLDGADSTGVVAKLSPANQRKCERVLLALFCHEPCRPLHQLATDSTFSLDQPGGTLDLTLIRARLQEKLSPPYSSPQEFAQDVGRMFKQFNKLTEDKADVQSIIGLQRFFETRMNEAFGDTKFSAVLVEPPPMSLPGAGLSSQELSGGPGDGP

Variants of: B1
Conditions: with chd3_human CHD3, Q12873
Sequence of chd3_human CHD3, Q12873 (Q12873 whole entry): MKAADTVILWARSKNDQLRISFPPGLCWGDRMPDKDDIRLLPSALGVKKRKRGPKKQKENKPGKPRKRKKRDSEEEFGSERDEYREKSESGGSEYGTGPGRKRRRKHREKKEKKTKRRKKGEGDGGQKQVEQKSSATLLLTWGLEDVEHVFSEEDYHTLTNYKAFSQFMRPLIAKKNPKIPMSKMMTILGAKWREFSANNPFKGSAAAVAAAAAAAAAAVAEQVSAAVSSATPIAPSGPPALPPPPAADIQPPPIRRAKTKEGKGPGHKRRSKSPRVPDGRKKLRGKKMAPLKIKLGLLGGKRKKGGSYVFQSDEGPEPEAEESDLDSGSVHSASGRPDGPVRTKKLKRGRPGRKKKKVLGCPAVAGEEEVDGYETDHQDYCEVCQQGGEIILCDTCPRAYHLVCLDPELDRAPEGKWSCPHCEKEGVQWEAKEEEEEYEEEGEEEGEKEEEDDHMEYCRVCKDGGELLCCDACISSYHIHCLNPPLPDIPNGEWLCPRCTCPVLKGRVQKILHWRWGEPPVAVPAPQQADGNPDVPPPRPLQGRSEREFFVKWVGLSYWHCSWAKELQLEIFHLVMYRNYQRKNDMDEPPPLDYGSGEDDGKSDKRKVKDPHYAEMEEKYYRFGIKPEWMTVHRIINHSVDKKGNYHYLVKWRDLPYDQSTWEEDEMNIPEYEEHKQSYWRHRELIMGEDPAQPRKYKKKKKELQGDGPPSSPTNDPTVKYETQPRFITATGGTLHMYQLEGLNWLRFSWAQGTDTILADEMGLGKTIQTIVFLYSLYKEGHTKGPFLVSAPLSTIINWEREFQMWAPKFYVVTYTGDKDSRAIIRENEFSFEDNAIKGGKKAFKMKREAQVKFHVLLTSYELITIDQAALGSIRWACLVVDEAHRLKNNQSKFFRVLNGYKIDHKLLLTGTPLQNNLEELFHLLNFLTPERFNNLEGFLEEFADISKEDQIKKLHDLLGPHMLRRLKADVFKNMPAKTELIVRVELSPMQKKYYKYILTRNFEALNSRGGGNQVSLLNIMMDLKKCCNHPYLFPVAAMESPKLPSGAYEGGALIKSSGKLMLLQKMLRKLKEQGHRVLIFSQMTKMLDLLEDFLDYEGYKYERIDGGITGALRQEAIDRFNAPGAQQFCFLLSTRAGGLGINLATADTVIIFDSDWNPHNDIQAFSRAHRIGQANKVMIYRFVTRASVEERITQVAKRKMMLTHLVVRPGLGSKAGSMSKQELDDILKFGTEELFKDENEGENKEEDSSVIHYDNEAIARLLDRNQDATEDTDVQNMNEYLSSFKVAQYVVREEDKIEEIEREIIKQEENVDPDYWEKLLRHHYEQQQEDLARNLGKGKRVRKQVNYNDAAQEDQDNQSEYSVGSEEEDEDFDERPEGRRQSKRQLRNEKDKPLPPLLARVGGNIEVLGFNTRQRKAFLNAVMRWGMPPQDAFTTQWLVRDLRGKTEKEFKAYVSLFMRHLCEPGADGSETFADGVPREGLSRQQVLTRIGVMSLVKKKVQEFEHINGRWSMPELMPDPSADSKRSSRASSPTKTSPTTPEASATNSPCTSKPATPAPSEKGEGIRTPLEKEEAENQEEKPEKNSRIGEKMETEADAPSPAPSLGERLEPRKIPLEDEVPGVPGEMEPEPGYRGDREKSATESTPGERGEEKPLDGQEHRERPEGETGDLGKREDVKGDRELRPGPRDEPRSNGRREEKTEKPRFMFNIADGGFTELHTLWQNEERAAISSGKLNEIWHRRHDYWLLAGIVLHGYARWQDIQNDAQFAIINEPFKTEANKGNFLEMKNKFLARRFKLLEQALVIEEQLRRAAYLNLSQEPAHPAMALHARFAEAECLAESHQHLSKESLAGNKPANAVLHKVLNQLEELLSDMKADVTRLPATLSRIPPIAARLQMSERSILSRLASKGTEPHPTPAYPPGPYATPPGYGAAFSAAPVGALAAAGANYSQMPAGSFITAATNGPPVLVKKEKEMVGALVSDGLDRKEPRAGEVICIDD

Row | effect of a mutation on the interaction | Variant
1 | disrupting interaction | K554R;K779R;K804R
2 | decreasing interaction | S824D
